# In PMC4692482, “Structure and Stability of the Dimeric Triosephosphate Isomerase from the Thermophilic Archaeon Thermoplasma acidophilum” (PLoS ONE, 2015):
# Molecular target: the molecule itself
# Assay: AUC; equilibrium sedimentation, 20 mM Tris-HCl pH 7.5, 200 mM NaCl, 20°C, 20,000 and 26,000 rpm, 12.6, 16.8 and 21.0 uM protein; data fit a homogeneous dimer model; reversible monomer-dimer and monomer-trimer models rejected
protein,measurement,value
"triosephosphate isomerase from Thermoplasma acidophilum (enzyme, UniProt Q9HLB6 1-216, looked up, Cloned into pET-28a(+) with a C-terminal His6-tag; no tag removal is described; The monomer mass used for AUC is 24,671 daltons; The crystals with glycerol-3-phosphate (G3P) hold the same protein; also called TaTPI; apo-TaTPI; source: E. coli Rosetta 2(DE3)pLysS, purified (heat step 60°C, HiTrap Chelating, SEC, anion exchange, SEC)) MYTAIVNLKTYREATGANFTRFMEKFEPVQGKFELIFSPSLLDLEKAAKCGKFRFFAQHVDAEPYGAYTGHVPMDMMIDLGITGSILNHSERRLPRDTIINTLKKASKLDFTIVLCVENAEEAKYFREYEPDFIAYEPRDLIGGDVSVSTAKPEIIEDIVKIYEGTGTSVLVGAGIKTGEDVRRSIGLGARGILVASGVVKSADPTKSLNSLIELK",stoichiometry N,2
